Where “and” joins values, the source holds several entries; their conditions need not be identical. Equal entries are not always repeated.
Target: Recombinant Halo-tagged Synaptophysin labeled with Alexa488 (mouse) (UniProt Q62277)
Test: single-molecule TIRF step photobleaching

Recombinant Halo-tagged Synaptophysin labeled with Alexa488 (from UniProt Q62277 1-314) (natural protein)
stoichiometry N: 3 copies and 5 copies

From article PMC10349951
